In article PMC4813479, “β-Subunit Binding Is Sufficient for Ligands to Open the Integrin αIIbβ3 Headpiece” (The Journal of Biological Chemistry, 2015):
Read-outs that look alike come from different tables or passages of the source. Non-standard residues stand in square brackets, D forms with d. No end group written: not given here. *: point of attachment. FITC = O=C1OC2(c3ccc(O)cc3Oc3cc(O)ccc32)c2ccc(NC(=S)*)cc21; Ahx = NCCCCCC(=O)O

Tests used:
[1] = molecular target: recombinant αIIbβ3 headpiece; test: fluorescence polarisation; competition: unlabeled peptide against 3 nM FITC-dodecapeptide on 300 nM αIIbβ3 headpiece; I50 converted to KD; 20 mM HEPES, pH 7.5, 150 mM NaCl, 2 mM MnCl2, 0.1 mM CaCl2
[2] = molecular target: six-domain αIIbβ3 headpiece fragment (chymotrypsin-treated, re-purified)
[3] = molecular target: recombinant αIIbβ3 headpiece; test: fluorescence polarisation; saturation: FITC-dodecapeptide probe at 3 nM, increasing concentration of αIIbβ3 headpiece; one-site specific binding fit; background with 10 μM tirofiban subtracted; 20 mM HEPES, pH 7.5, 150 mM NaCl, 2 mM MnCl2, 0.1 mM CaCl2
[4] = molecular target: recombinant αIIbβ3 headpiece; test: fluorescence polarisation; competition: unlabeled peptide against 3 nM FITC-dodecapeptide on 300 nM αIIbβ3 headpiece; I50 converted to KD; 20 mM HEPES, pH 7.5, 150 mM NaCl, 2 mM MnCl2, 0.1 mM CaCl2; remark: listed apart in the source
[5] = molecular target: full-length human αIIbβ3 on CHO K1 cells (human) (UniProt P08514)

B1: AGDV-OCH3 (O-methylated AGDV) (peptide)
peptide: AGDV-OMe
B1 gave a fold reduction in affinity against AGDV [1] of 7.5 fold.

B2: RGDF peptide (peptide)
peptide: RGDF
In the case of B2, the Stokes radius of the αIIbβ3 headpiece by size-exclusion chromatography (Superdex 200) with 1 mM peptide (4.78 nm in buffer) [2] is reported as 5.23 nm.

B3: N-acetylated AGDV (peptide)
peptide: Ac-AGDV
In the case of B3, the Kd [1] is reported as 1 µM.

B4: AGDV tetrapeptide (peptide)
peptide: AGDV
With B4 the Kd [1] was 9.03 µM.

B5: FITC-aminohexanoyl-… (peptide)
peptide: {FITC-Ahx}-HHLGGAKQAGDV
With B5 the Kd [3] was 0.64 µM.

B6: QAGDV pentapeptide (peptide)
peptide: QAGDV
B6 showed a Kd [1] of 7.85 µM.

B7: AGDV-NH2 (amidated AGDV) (peptide)
peptide: AGDV-NH2
B7 gave a fold reduction in affinity against AGDV [1] of 5.6 fold and a fold reduction in affinity against AGDV [4] of 7 fold.

B8: fibrinogen γC dodecapeptide (peptide)
peptide: HHLGGAKQAGDV
For B8, the Kd [1] was 1.27 µM and the EC50 of LIBS1 epitope exposure on CHO cells expressing αIIbβ3 (flow cytometry, 1 mM Mg2+ and 1 mM Ca2+) [5] was 580 µM.

B9: AGD(v) (D-valine in place of L-valine) (peptide)
peptide: AGD[dV]
In the case of B9, the fold decrease in binding affinity against AGDV [1] is reported as 24 fold.
